According to article PMC10143413:
Blank lines part the entries; values can stand above or below the substance they belong to.

Columns and labels:
[1] = biological target: Pyruvate kinase PKM1, purified from rabbit skeletal muscle (rabbit) (UniProt P11974); experiment: SPR; Biacore T200, 25 °C; PKM1 amine-coupled to a CM5 chip, creatine kinase as analyte in 0.05 M potassium phosphate buffer pH 7.4, 10 µL/min for 5 min; global fit to the 1:1 binding model
[2] = biological target: Lactate dehydrogenase, purified from rabbit skeletal muscle (rabbit) (UniProt P13491); experiment: SPR; Biacore T200, 25 °C; GAPDH, LDH or aldolase A amine-coupled to a CM5 chip, PKM1 as analyte in 0.05 M potassium phosphate buffer pH 7.4, 10 µL/min for 5 min; global fit to the 1:1 binding model
[3] = biological target: Aldolase A, purified from rabbit skeletal muscle (rabbit) (UniProt P00883); experiment: as above
Chain of Aldolase A, purified from rabbit skeletal muscle (rabbit) (P00883 whole entry): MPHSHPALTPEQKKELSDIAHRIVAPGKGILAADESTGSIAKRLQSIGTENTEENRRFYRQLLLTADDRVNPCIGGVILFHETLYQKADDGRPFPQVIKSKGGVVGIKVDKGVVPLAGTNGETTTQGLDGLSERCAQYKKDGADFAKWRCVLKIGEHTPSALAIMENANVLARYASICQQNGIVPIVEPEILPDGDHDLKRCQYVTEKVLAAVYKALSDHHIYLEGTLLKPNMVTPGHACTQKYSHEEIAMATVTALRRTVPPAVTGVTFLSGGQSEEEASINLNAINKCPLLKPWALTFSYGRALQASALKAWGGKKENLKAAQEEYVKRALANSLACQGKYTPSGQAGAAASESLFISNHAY

Chain of Pyruvate kinase PKM1, purified from rabbit skeletal muscle (rabbit) (P11974 whole entry): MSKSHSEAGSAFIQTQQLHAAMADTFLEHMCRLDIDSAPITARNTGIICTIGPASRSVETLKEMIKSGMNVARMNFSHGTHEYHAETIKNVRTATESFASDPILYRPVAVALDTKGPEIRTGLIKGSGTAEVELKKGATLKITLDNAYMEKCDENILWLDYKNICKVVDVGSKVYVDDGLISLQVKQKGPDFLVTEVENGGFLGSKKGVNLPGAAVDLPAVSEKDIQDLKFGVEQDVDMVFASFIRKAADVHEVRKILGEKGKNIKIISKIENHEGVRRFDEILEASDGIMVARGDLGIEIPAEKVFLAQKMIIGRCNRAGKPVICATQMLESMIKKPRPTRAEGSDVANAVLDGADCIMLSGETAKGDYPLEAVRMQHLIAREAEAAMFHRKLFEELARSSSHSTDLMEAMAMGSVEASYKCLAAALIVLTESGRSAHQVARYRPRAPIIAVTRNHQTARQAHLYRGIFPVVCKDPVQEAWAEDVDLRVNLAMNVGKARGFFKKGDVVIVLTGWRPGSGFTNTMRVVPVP
Chain of Pyruvate kinase PKM1, purified from rabbit skeletal muscle, P11974-1 1-531 (enzyme; other documents disagree on this pair) (P11974 whole entry): as above
Chain of Pyruvate kinase PKM1, purified from rabbit skeletal muscle (P11974 whole entry): as above

- Kd [1]: 0.0107 µM
- koff [1]: 0.000924 s⁻¹
- kon [1]: 86400 M⁻¹ s⁻¹
Substance: Creatine kinase from rabbit muscle (from UniProt P00563 1-381) (enzyme)

- Kd [2]: 4.8 µM
- koff [2]: 0.00657 s⁻¹
- kon [2]: 1370 M⁻¹ s⁻¹
Substance: Pyruvate kinase PKM1, purified from rabbit skeletal muscle (from UniProt P11974-1 1-531) (enzyme)

- Kd [3]: 1.41 µM
- koff [3]: 0.00238 s⁻¹
- kon [3]: 1690 M⁻¹ s⁻¹
Substance: Pyruvate kinase PKM1, purified from rabbit skeletal muscle, P11974-1 1-531 (enzyme; other documents disagree on this pair)
